According to patent US20260049138A1 (Chugai, published 2026):

B1: GLS3000 H27dG one-arm antibody (antibody, human IgG1, kappa, L234A L235A, N297A, name in Kabat numbering)
heavy: QVQLVESGGGVVQPGRSLRLSCAASGFTFSNAWMHWVRQAPGKGLEWVAQIKAKSNNYATYYAESVKGRFTISRDDSKNSLYLQMNSLKTEDTAVYYCRYVHYGAYYGVDAWGQGTTVTVSSASTKGPSVFPLAPSSKSTSGGTAALGCLVKDYFPEPVTVSWNSGALTSGVHTFPAVLQSSGLYSLSSVVTVPSSSLGTQTYICNVNHKPSNTKVDKKVEPKSCDKTHTCPPCPAPEAAGGPSVFLFPPKPKDTLMISRTPEVTCVVVDVSHEDPEVKFNWYVDGVEVHNAKTKPREEQYASTYRVVSVLTVLHQDWLNGKEYKCKVSNKALPAPIEKTISKAKGQPREPQVYTLPPSRCELTKNQVSLSCAVKGFYPSDIAVEWESNGQPENNYKTTPPVLDSDGSFFLVSKLTVDKSRWQQGNVFSCSVMHEALHNHYTQKSLSLSPDYKDDDDK
chain: EPKSSDKTHTCPPCPAPELLGGPSVFLFPPKPKDTLMISRTPEVTCVVVDVSHEDPEVKFNWYVDGVEVHNAKTKPREEQYNSTYRVVSVLTVLHQDWLNGKEYKCKVSNKALPAPIEKTISKAKGQPREPQVCTLPPSRDELTKNQVSLWCLVKGFYPSDIAVEWESNGQPENNYKTTPPVLDSDGSFFLYSKLTVDKSRWQQGNVFSCSVMHEALHNRYTQKSLSLSP
light: DIVMTQSPLSLPVTPGEPASISCRSSQSLVGSNRNTYLHWYQQKPGQAPRLLIYKVSNRFSGVPDRFSGSGSGTDFTLKISRVEAEDVGVYYCGQGTQVPYTFGQGTKLEIKRTVAAPSVFIFPPSDEQLKSGTASVVCLLNNFYPREAKVQWKVDNALQSGNSQESVTEQDSKDSTYSLSSTLTLSKADYEKHKVYACEVTHQGLSSPVTKSFNRGEC
B2: GLS3000 H27dI one-arm antibody (antibody, human IgG1, kappa, L234A L235A, N297A, name in Kabat numbering)
heavy: QVQLVESGGGVVQPGRSLRLSCAASGFTFSNAWMHWVRQAPGKGLEWVAQIKAKSNNYATYYAESVKGRFTISRDDSKNSLYLQMNSLKTEDTAVYYCRYVHYGAYYGVDAWGQGTTVTVSSASTKGPSVFPLAPSSKSTSGGTAALGCLVKDYFPEPVTVSWNSGALTSGVHTFPAVLQSSGLYSLSSVVTVPSSSLGTQTYICNVNHKPSNTKVDKKVEPKSCDKTHTCPPCPAPEAAGGPSVFLFPPKPKDTLMISRTPEVTCVVVDVSHEDPEVKFNWYVDGVEVHNAKTKPREEQYASTYRVVSVLTVLHQDWLNGKEYKCKVSNKALPAPIEKTISKAKGQPREPQVYTLPPSRCELTKNQVSLSCAVKGFYPSDIAVEWESNGQPENNYKTTPPVLDSDGSFFLVSKLTVDKSRWQQGNVFSCSVMHEALHNHYTQKSLSLSPDYKDDDDK
chain: EPKSSDKTHTCPPCPAPELLGGPSVFLFPPKPKDTLMISRTPEVTCVVVDVSHEDPEVKFNWYVDGVEVHNAKTKPREEQYNSTYRVVSVLTVLHQDWLNGKEYKCKVSNKALPAPIEKTISKAKGQPREPQVCTLPPSRDELTKNQVSLWCLVKGFYPSDIAVEWESNGQPENNYKTTPPVLDSDGSFFLYSKLTVDKSRWQQGNVFSCSVMHEALHNRYTQKSLSLSP
light: DIVMTQSPLSLPVTPGEPASISCRSSQSLVISNRNTYLHWYQQKPGQAPRLLIYKVSNRFSGVPDRFSGSGSGTDFTLKISRVEAEDVGVYYCGQGTQVPYTFGQGTKLEIKRTVAAPSVFIFPPSDEQLKSGTASVVCLLNNFYPREAKVQWKVDNALQSGNSQESVTEQDSKDSTYSLSSTLTLSKADYEKHKVYACEVTHQGLSSPVTKSFNRGEC
B3: GLS3000 H27dL one-arm antibody (antibody, human IgG1, kappa, L234A L235A, N297A, name in Kabat numbering)
heavy: QVQLVESGGGVVQPGRSLRLSCAASGFTFSNAWMHWVRQAPGKGLEWVAQIKAKSNNYATYYAESVKGRFTISRDDSKNSLYLQMNSLKTEDTAVYYCRYVHYGAYYGVDAWGQGTTVTVSSASTKGPSVFPLAPSSKSTSGGTAALGCLVKDYFPEPVTVSWNSGALTSGVHTFPAVLQSSGLYSLSSVVTVPSSSLGTQTYICNVNHKPSNTKVDKKVEPKSCDKTHTCPPCPAPEAAGGPSVFLFPPKPKDTLMISRTPEVTCVVVDVSHEDPEVKFNWYVDGVEVHNAKTKPREEQYASTYRVVSVLTVLHQDWLNGKEYKCKVSNKALPAPIEKTISKAKGQPREPQVYTLPPSRCELTKNQVSLSCAVKGFYPSDIAVEWESNGQPENNYKTTPPVLDSDGSFFLVSKLTVDKSRWQQGNVFSCSVMHEALHNHYTQKSLSLSPDYKDDDDK
chain: EPKSSDKTHTCPPCPAPELLGGPSVFLFPPKPKDTLMISRTPEVTCVVVDVSHEDPEVKFNWYVDGVEVHNAKTKPREEQYNSTYRVVSVLTVLHQDWLNGKEYKCKVSNKALPAPIEKTISKAKGQPREPQVCTLPPSRDELTKNQVSLWCLVKGFYPSDIAVEWESNGQPENNYKTTPPVLDSDGSFFLYSKLTVDKSRWQQGNVFSCSVMHEALHNRYTQKSLSLSP
light: DIVMTQSPLSLPVTPGEPASISCRSSQSLVLSNRNTYLHWYQQKPGQAPRLLIYKVSNRFSGVPDRFSGSGSGTDFTLKISRVEAEDVGVYYCGQGTQVPYTFGQGTKLEIKRTVAAPSVFIFPPSDEQLKSGTASVVCLLNNFYPREAKVQWKVDNALQSGNSQESVTEQDSKDSTYSLSSTLTLSKADYEKHKVYACEVTHQGLSSPVTKSFNRGEC
B4: GLS3000 H27dM one-arm antibody (antibody, human IgG1, kappa, L234A L235A, N297A, name in Kabat numbering)
heavy: QVQLVESGGGVVQPGRSLRLSCAASGFTFSNAWMHWVRQAPGKGLEWVAQIKAKSNNYATYYAESVKGRFTISRDDSKNSLYLQMNSLKTEDTAVYYCRYVHYGAYYGVDAWGQGTTVTVSSASTKGPSVFPLAPSSKSTSGGTAALGCLVKDYFPEPVTVSWNSGALTSGVHTFPAVLQSSGLYSLSSVVTVPSSSLGTQTYICNVNHKPSNTKVDKKVEPKSCDKTHTCPPCPAPEAAGGPSVFLFPPKPKDTLMISRTPEVTCVVVDVSHEDPEVKFNWYVDGVEVHNAKTKPREEQYASTYRVVSVLTVLHQDWLNGKEYKCKVSNKALPAPIEKTISKAKGQPREPQVYTLPPSRCELTKNQVSLSCAVKGFYPSDIAVEWESNGQPENNYKTTPPVLDSDGSFFLVSKLTVDKSRWQQGNVFSCSVMHEALHNHYTQKSLSLSPDYKDDDDK
chain: EPKSSDKTHTCPPCPAPELLGGPSVFLFPPKPKDTLMISRTPEVTCVVVDVSHEDPEVKFNWYVDGVEVHNAKTKPREEQYNSTYRVVSVLTVLHQDWLNGKEYKCKVSNKALPAPIEKTISKAKGQPREPQVCTLPPSRDELTKNQVSLWCLVKGFYPSDIAVEWESNGQPENNYKTTPPVLDSDGSFFLYSKLTVDKSRWQQGNVFSCSVMHEALHNRYTQKSLSLSP
light: DIVMTQSPLSLPVTPGEPASISCRSSQSLVMSNRNTYLHWYQQKPGQAPRLLIYKVSNRFSGVPDRFSGSGSGTDFTLKISRVEAEDVGVYYCGQGTQVPYTFGQGTKLEIKRTVAAPSVFIFPPSDEQLKSGTASVVCLLNNFYPREAKVQWKVDNALQSGNSQESVTEQDSKDSTYSLSSTLTLSKADYEKHKVYACEVTHQGLSSPVTKSFNRGEC
B5: GLS3000 H27dN one-arm antibody (antibody, human IgG1, kappa, L234A L235A, N297A, name in Kabat numbering)
heavy: QVQLVESGGGVVQPGRSLRLSCAASGFTFSNAWMHWVRQAPGKGLEWVAQIKAKSNNYATYYAESVKGRFTISRDDSKNSLYLQMNSLKTEDTAVYYCRYVHYGAYYGVDAWGQGTTVTVSSASTKGPSVFPLAPSSKSTSGGTAALGCLVKDYFPEPVTVSWNSGALTSGVHTFPAVLQSSGLYSLSSVVTVPSSSLGTQTYICNVNHKPSNTKVDKKVEPKSCDKTHTCPPCPAPEAAGGPSVFLFPPKPKDTLMISRTPEVTCVVVDVSHEDPEVKFNWYVDGVEVHNAKTKPREEQYASTYRVVSVLTVLHQDWLNGKEYKCKVSNKALPAPIEKTISKAKGQPREPQVYTLPPSRCELTKNQVSLSCAVKGFYPSDIAVEWESNGQPENNYKTTPPVLDSDGSFFLVSKLTVDKSRWQQGNVFSCSVMHEALHNHYTQKSLSLSPDYKDDDDK
chain: EPKSSDKTHTCPPCPAPELLGGPSVFLFPPKPKDTLMISRTPEVTCVVVDVSHEDPEVKFNWYVDGVEVHNAKTKPREEQYNSTYRVVSVLTVLHQDWLNGKEYKCKVSNKALPAPIEKTISKAKGQPREPQVCTLPPSRDELTKNQVSLWCLVKGFYPSDIAVEWESNGQPENNYKTTPPVLDSDGSFFLYSKLTVDKSRWQQGNVFSCSVMHEALHNRYTQKSLSLSP
light: DIVMTQSPLSLPVTPGEPASISCRSSQSLVNSNRNTYLHWYQQKPGQAPRLLIYKVSNRFSGVPDRFSGSGSGTDFTLKISRVEAEDVGVYYCGQGTQVPYTFGQGTKLEIKRTVAAPSVFIFPPSDEQLKSGTASVVCLLNNFYPREAKVQWKVDNALQSGNSQESVTEQDSKDSTYSLSSTLTLSKADYEKHKVYACEVTHQGLSSPVTKSFNRGEC
B6: GLS3000 H27dK one-arm antibody (antibody, human IgG1, kappa, L234A L235A, N297A, name in Kabat numbering)
heavy: QVQLVESGGGVVQPGRSLRLSCAASGFTFSNAWMHWVRQAPGKGLEWVAQIKAKSNNYATYYAESVKGRFTISRDDSKNSLYLQMNSLKTEDTAVYYCRYVHYGAYYGVDAWGQGTTVTVSSASTKGPSVFPLAPSSKSTSGGTAALGCLVKDYFPEPVTVSWNSGALTSGVHTFPAVLQSSGLYSLSSVVTVPSSSLGTQTYICNVNHKPSNTKVDKKVEPKSCDKTHTCPPCPAPEAAGGPSVFLFPPKPKDTLMISRTPEVTCVVVDVSHEDPEVKFNWYVDGVEVHNAKTKPREEQYASTYRVVSVLTVLHQDWLNGKEYKCKVSNKALPAPIEKTISKAKGQPREPQVYTLPPSRCELTKNQVSLSCAVKGFYPSDIAVEWESNGQPENNYKTTPPVLDSDGSFFLVSKLTVDKSRWQQGNVFSCSVMHEALHNHYTQKSLSLSPDYKDDDDK
chain: EPKSSDKTHTCPPCPAPELLGGPSVFLFPPKPKDTLMISRTPEVTCVVVDVSHEDPEVKFNWYVDGVEVHNAKTKPREEQYNSTYRVVSVLTVLHQDWLNGKEYKCKVSNKALPAPIEKTISKAKGQPREPQVCTLPPSRDELTKNQVSLWCLVKGFYPSDIAVEWESNGQPENNYKTTPPVLDSDGSFFLYSKLTVDKSRWQQGNVFSCSVMHEALHNRYTQKSLSLSP
light: DIVMTQSPLSLPVTPGEPASISCRSSQSLVKSNRNTYLHWYQQKPGQAPRLLIYKVSNRFSGVPDRFSGSGSGTDFTLKISRVEAEDVGVYYCGQGTQVPYTFGQGTKLEIKRTVAAPSVFIFPPSDEQLKSGTASVVCLLNNFYPREAKVQWKVDNALQSGNSQESVTEQDSKDSTYSLSSTLTLSKADYEKHKVYACEVTHQGLSSPVTKSFNRGEC

molecular target: T1, CD3ε homodimer protein (human, UniProt P07766 23-126, limits assumed); experiment: SPR Biacore T200, CD3ε homodimer on chip;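 further: Light-chain single-residue variant antibodies injected over amine-coupled CD3ε homodimer on a CM4 chip at 25 °C, bound amount divided by that of the GLS3000-containing antibody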
T1 construct: also called CD3 (CD3ε)
T1 sequence (P07766 23-126 limits assumed): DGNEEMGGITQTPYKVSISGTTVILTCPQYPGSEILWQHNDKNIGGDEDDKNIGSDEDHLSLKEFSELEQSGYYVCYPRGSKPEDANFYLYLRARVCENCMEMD

Going from B1 to B2, the “ratio of amount bound vs unaltered GLS3000” value (“ratio of amount bound” below) falls from 0.3 to 0.26.

B3 and B4 are the same in “ratio of amount bound” value: 0.3 for the first, 0.3 for the second.

Going from B5 to B6, the “ratio of amount bound” value falls from 0.3 to 0.29.
